Data as given in publication PMC3520712, “Arabidopsis mutant sk156 reveals complex regulation of SPL15 in a miR156-controlled gene network”.

Target: T1, SPL15 SBP domain (His-tagged) (Arabidopsis thaliana, UniProt Q9M2Q6 50-139)
T1 sequence: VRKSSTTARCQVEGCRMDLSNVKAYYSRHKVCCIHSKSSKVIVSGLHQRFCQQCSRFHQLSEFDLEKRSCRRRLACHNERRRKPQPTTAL
Assay: EMSA; ~500 ng protein, ~20 fmol DNA; displaced by 100-fold unlabeled N1; 10 mM Tris pH 7.5, 50 mM KCl, 5 mM MgCl (so in the source), 5 mM DTT, 2.5% glycerol, 0.05% NP-40, 25 C 30 min; 7.5% gel in 0.5x TBE at 4 C
Conditions: protein: recombinant; tags: His tag (pET28a, BamHI/SalI; 16.3 kD fusion); label: digoxigenin (DIG Gel Shift kit); blunt

B1: miR156b promoter 46-mer (R156b-bx1) (dsDNA)
DNA 1: TAATTAGTGAAACTGTACAATGTACAATGTACCAATGCCATTAATG
DNA 2: CATTAATGGCATTGGTACATTGTACATTGTACAGTTTCACTAATTA
B1: binds.
